Laboratory results from US20230331820A1 (GlaxoSmithKline, published 2023).
Where two headings read alike, the source gives them in different places.

B1: mAb clone 15 (antibody, V domains shown)
VH: QVQLKESGPGLVAPSQSLSITCTVSGFSLTSYGVSWVRQPPGKGLEWLGVIWGDGSTNYHSALISRLSISKDNSKSQVFLKLNSLQTDDTATYYCAKPDLYYDSPYAMDYWGQGTSVTVSS
VL: DIQMTQSPASLSASVGETVTITCRASGNIHNYLAWYQQKQGKSPQLLVYNAKTLADGVPSRFSGSGSGTQYSLKINSLQPEDFGSYYCQHFWSTPWTFGGGTKLEIK
B2: mAb clone 9 (antibody, V domains shown)
VH: EVQLQQSGPELEKPGASVKISCKASGYSFTGYNMNWVKQSNGKSLEWIGNIDPYYGGTSYNQKFKGKATLTLDKSSSTAYMQLKSLTSEDSAVYYCARSRFITTVVATDYYAMDYWGQGTSVTVSS
VL: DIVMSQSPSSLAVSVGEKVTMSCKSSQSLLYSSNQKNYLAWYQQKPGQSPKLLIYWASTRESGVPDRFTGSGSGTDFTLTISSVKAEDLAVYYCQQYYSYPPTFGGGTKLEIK
B3: mAb clone 24 (antibody, V domains shown)
VH: EVQLQQSGPELVKPGASVKMSCKASGYTFTDYYMKWVKQSHGKSLEWIGDINPNNGDTFYNQKFKGKATLTVDKSSSTAYMQLNSLTSEDSAVYYCARRGFYYYGSRGGIMDYWGQGTSVTVSS
VL: NIMMTQSPSSLAVSAGEKVTMSCKSSQSVLYSSNQKNYLAWYQQKPGQSPKLLIYWASTRESGVPDRFTGSGSGTDFTLTISSVQAEDLAVYYCHQYLSSYTFGGGTKLEIK
B4: mAb clone 20 (antibody, V domains shown)
VH: QVQLQQSGAELVRPGTSVKVSCKASGYAFTNYLIEWVKQRPGQGLEWIGVINPGSGGTNYNEKFKGKATLTADKSSSTAYMQLSSLTSDDSAVYFCARSHYGNYYAMDYWGQGTSVTVSS
VL: NIVLTQSPASLAVSLGQRATISCRASESVDSYGNSFMHWYQQKPGQPPKLLIYLASNLESGVPARFSGSGSRTDFTLTIDPVEADDAATYYCQQNNEDPWTFGGGTKLEIK
B5: mAb clone 10 (antibody, V domains shown)
VH: EVKLVESGGGLVQPGGSLRLSCATSGFTFSDFYMEWVRQPPGKRLEWIAASRNKANDYTTEYSASVKGRFIVSRDTSQSILYLQMNALRAEDTAIYYCARENYGNPAMDYWGQGTSVTVSS
VL: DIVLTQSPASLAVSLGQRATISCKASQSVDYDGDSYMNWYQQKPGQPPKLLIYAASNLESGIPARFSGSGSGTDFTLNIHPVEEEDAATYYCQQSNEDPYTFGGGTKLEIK
B6: mAb clone 3, 21 (antibody, V domains shown)
VH: EVQLQQSGPELVKPGASVKISCKTSGYTFTEYTMHWVKQSHGKSLEWIGGINPNNGGTSYNQKFKGKATLTVDKSSSTAYMELRSLTSEDSAVYYCARSLVEGDFAYWGQGTLVTVSA
VL: DIVLTQSPASLAVSLGQRATISCRASQSVSTSSYSYMHWYQQKPGQPPKLLIKYASNLESGVPARFSGSGSGTDFTLNIHPVEEEDTATYYCQHSWEIPYTFGGGTKLEIK
B7: mAb clone 18 (antibody, V domains shown)
VH: QVQLQQSGAELVRPGTSVKMSCKAAGYTFTNYWIGWVKQRPGHGLEWIGDIYPGGGYTKYNEKFKGKATLTADTSSSTAYMQLSSLTSEDSAIYYCARDGYSPYWGQGTSLTVSS
VL: TIVMTQTPKFLLVSAGDRVTITCKASQSVSNAVAWYQQKPGQSPKLLIYSASNRYTGVPDRFTGSGYGTDFTFTISSVQAEDLAVYFCQQDYTSPFTFGSGTKLEIK
notes: also called mAb 18; mAb18
B8: mAb clone 2 (antibody, V domains shown)
VH: QVQLQQSGAELVRPGTSVKVSCKASGYAFTNYLIEWVKQRPGQGLEWIGVINPGSGGTNYNEKFKGKATLTADKSSSTAYMQLSSLTSDDSAVYFCARSRGYPYAMDYWGQGTSVTVSS
VL: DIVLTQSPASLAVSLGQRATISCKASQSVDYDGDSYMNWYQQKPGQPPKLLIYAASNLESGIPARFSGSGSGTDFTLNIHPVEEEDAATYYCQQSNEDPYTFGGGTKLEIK
B9: mAb clone 17 (antibody, V domains shown)
VH: QVQLKESGPGLVAPSQSLSITCTVSGFSLTSYGVHWVRQPPGKGLEWLGVIWAGGSSNYNSALMSRLSISKDNSKSQVFLKMNSLQTDDTAMYYCARDGYGYVYYAMDYWGQGTSVTVSS
VL: DIVMTQAAPSVPVTPGESVSISCRSSKSLLHSNGNTYLYWFLQRPGQSPQLLIYRMSNLASGVPDRFSGSGSGTAFTLRISRVEAEDVGVYYCMQHLEYPFTFGAGTKLELK
B10: mAb clone 5 (antibody, V domains shown)
VH: EVKLVESGGGLVQPGGSLRLSCATSGFTFSDFYMEWVRQPPGKRLEWIAASRNKANDYTTEYSASVKGRFIVSRDTSQSILYLQMNALRAEDTAIYYCARDFLPYYGSPWFAYWGQGTLVTVSA
VL: DIVMTQSPATLSVTPGDRVSLSCRASQSISDYLHWYQQKSHESPRLLIKYASQSISGIPSRFSGSGSGSDFTLSINSVEPEDVGVYYCQNGHSFPYTFGGGTKLEIK
notes: also called mAb 5; GEGI/5IIa

How the values were obtained:
[1] = biological target: T1, gEgI WT: HSV2 gEgI heterodimer comprising gE and gI wildtype ectodomains (HSV2, UniProt P89475 21-416; P06764 21-256); assay: SPR binning; gEgI captured by mAb 39
[2] = biological target: T1, gEgI WT: HSV2 gEgI heterodimer …; assay: SPR binning; gEgI captured by mAb 20
[3] = biological target: T1, gEgI WT: HSV2 gEgI heterodimer …; assay: SPR binning; gEgI captured by mAb 5
[4] = biological target: T1, gEgI WT: HSV2 gEgI heterodimer …; assay: SPR binning; gEgI captured by mAb 45
[5] = biological target: T1, gEgI WT: HSV2 gEgI heterodimer …; assay: SPR binning; gEgI captured by mAb 42
[6] = biological target: T1, gEgI WT: HSV2 gEgI heterodimer …; assay: SPR binning; gEgI captured by mAb 17
[7] = biological target: T1, gEgI WT: HSV2 gEgI heterodimer …; assay: SPR binning; gEgI captured by mAb 9
[8] = biological target: T1, gEgI WT: HSV2 gEgI heterodimer …; assay: Biacore SPR, gEgI HEK BMP1063 at 10 µg/ml for 180 s over the mAb
[9] = biological target: gE WT: HSV2 gE wildtype ectodomain (HSV2, UniProt P89475 21-416); assay: ELISA, supernatant
[10] = biological target: T2, gI WT: HSV2 gI wildtype ectodomain (HSV2, UniProt P06764 21-256); assay: ELISA, supernatant
[11] = biological target: gEgI mutant (338): HSV2 gEgI mutant heterodimer comprising gE and gI ectodomains with insertion of a (HSV2, UniProt P89475 21-416; P06764 21-256); assay: ELISA, supernatant
[12] = biological target: T1, gEgI WT: HSV2 gEgI heterodimer …; assay: SPR binning; gEgI captured by mAb 19
[13] = biological target: T1, gEgI WT: HSV2 gEgI heterodimer …; assay: SPR binning; gEgI captured by mAb 10
[14] = biological target: T1, gEgI WT: HSV2 gEgI heterodimer …; assay: Biacore SPR, gEgI CHO BMP1181 at 10 µg/ml for 180 s over the mAb
[15] = biological target: T1, gEgI WT: HSV2 gEgI heterodimer …; assay: SPR binning; gEgI captured by mAb 40
[16] = biological target: T1, gEgI WT: HSV2 gEgI heterodimer …; assay: SPR binning; gEgI captured by mAb 34
[17] = biological target: T1, gEgI WT: HSV2 gEgI heterodimer …; assay: SPR binning; gEgI captured by mAb 24
[18] = biological target: T1, gEgI WT: HSV2 gEgI heterodimer …; assay: SPR binning; gEgI captured by mAb 15
[19] = biological target: T2, gI WT: HSV2 gI wildtype ectodomain; assay: ELISA, supernatant; remark: listed apart in the source

Row | Binder | RU [1] [RU] | RU [2] [RU] | RU [3] [RU] | RU [4] [RU] | RU [5] [RU] | RU [6] [RU] | RU [7] [RU] | RU Ag/250 RU mAbs [8] [RU Ag/250 RU mAbs] | binding result [9] | binding result [10] | binding result [11] | RU [12] [RU] | RU [13] [RU] | RU Ag/250 RU mAbs [14] [RU Ag/250 RU mAbs] | RU [15] [RU] | RU [16] [RU] | RU [17] [RU] | RU [18] [RU] | binding result [19]
1 | B1 | 11.7 | 13 | 13.5 | 8.7 | 9.8 | 3.4 | 12.7 | 31.5 | no binding | no binding | binds | 7.6 | 13.4 | 30.4 | 6.9 | 5.9 | 9.9 | -4.9 | –
2 | B2 | 9 | 4.8 | 9.4 | 1.8 | 7 | 7.8 | -0.4 | – | no binding | no binding | binds | -5.1 | 11 | – | 6 | 0.9 | -0.1 | 5.5 | –
3 | B3 | 30.5 | 17.7 | 34.4 | 26.8 | 30.7 | 32.1 | 17 | – | no binding | no binding | binds | 13.3 | 39.1 | – | 28.3 | 20.7 | 6.4 | 42.6 | –
4 | B4 | 23.8 | 9.7 | 25.3 | 16.4 | 24.5 | 24 | 13 | – | no binding | no binding | binds | 6.5 | 32.8 | – | 21.3 | 13.4 | 7.3 | 18.5 | –
5 | B5 | 10.3 | 10.8 | 10.6 | -2 | 9.4 | 8.2 | 8.3 | – | no binding | no binding | binds | 2.3 | 4 | – | 8.3 | 2 | 8.2 | 3.3 | –
6 | B6 | – | – | – | – | – | – | – | 5.89 | binds | no binding | binds | – | – | 3.41 | – | – | – | – | –
7 | B7 | – | – | – | – | – | – | – | – | – | – | – | – | – | – | – | – | – | – | no binding
8 | B8 | – | – | – | – | – | – | – | 1.24 | no binding | – | binds | – | – | -1.26 | – | – | – | – | binds
9 | B9 | 0.5 | 2.2 | 0.5 | -2.6 | -0.8 | -8.7 | -0.5 | – | no binding | no binding | binds | -6.3 | 4.6 | – | -2.4 | -9.4 | -2 | -6.7 | –
10 | B10 | – | – | – | – | – | – | – | – | – | no binding | – | – | – | – | – | – | – | – | –
